Results from PMC11952830.
Changes are numbered by the printed parent chain.

Biological target: actin (rabbit muscle), P68135
Experiment: fluorescence anisotropy
Conditions: chain shown with the change, actin filaments titrated 0-12 µM

B1: Cdc42EP3 labeled with tetramethylrhodamine (TMR) at C211, Q9UKI2 KLP->AAA (protein)
chain: MPAKTPIYLKAANNKKGKKFKLRDILSPDMISPPLGDFRHTIHIGKEGQHDVFGDISFLQGNYELLPGNQEKAHLGQFPGHNEFFRANSTSDSVFTETPSPVLKNAISLPTIGGSQALMLPLLSPVTFNSKQESFGPAAAARLSAEPVMEEKAQEKSSLLENGTVHQGDTSWGSSGSASQSSQGRDSHSSSLSEQYPDWPAEDMFDHPTPCELIKGKTKSEESLSDLTGSLLSLQLDLGPSLLDEVLNVMDKNK
B1 was tested, and the Kd (20 nM TMR-labeled KLP-AAA Cdc42EP3 (TMR at C211) held fixed) was 3.4 µM.

B2: Cdc42EP3 labeled with tetramethylrhodamine (TMR) at C211, Q9UKI2 IS->AA (protein)
chain: B1 chain with I31A, S32A, A139K, A140L, A141P
Work on B2 yielded a Kd (20 nM TMR-labeled IS-AA Cdc42EP3 (TMR at C211) held fixed) of 2.8 µM.
